Test results: patent US20180117171A1, “IMMUNOCONJUGATES FOR PROGRAMMING OR REPROGRAMMING OF CELLS” (President and Fellows of Harvard College, priority 2015, published 2018)

Assays:
[1] = system: antigen specific Th17 T cells; test: Th17 ELISpot of splenocytes challenged with MOG; assay type: in vivo; settings: splenocytes of treated mice with EAE induced, MOG challenge
Text: To further explore the mechanism for tolerance induction in EAE animals treated with bolus immunoconjugate, T cell analyses (ELISpot and passive EAE assays) were completed in mice that received the immunoconjugate or control therapies (FIG. 36A-C). Splenocytes from mice treated with MOG alone or Dex-MOG with EAE induced were challenged with MOG to quantitate antigen specific elaboration of IL-17.

[2] = system: CD8+ T cells from OT-I mice; test: OT-I: DC co-culture, CFSE T cell proliferation; assay type: cell-based, mouse; settings: dexamethasone-SIINFEKL 1.0 μM; ovalbumin 0.2 μM
Experimental: Cytotoxic T-lymphocytes (CTLs) were purified using magnetic beads (Miltenyi Biotec) from the spleens of the T cell receptor (TCR) transgenic OT-I mice (Jackson Laboratories) following the manufacturer's protocol. OT-I mice express a transgenic T cell receptor that recognizes ovalbumin residues 257-264 in the context of H2Kb. The CTLs were cultured with a 1:1 ratio with BMDC for 3 days at 37° C. in R10 media. […] The cells were washed two times before culturing with the T cells. Dexamethasone-TRP-2 was made following the same solid phase method as described above (Peptide synthesizer: CS Bio, DIPEA, Piperidine, TFA, and NMP: Advanced ChemTech, DCM: Sigma, amino acids and resin: Peptides International, dexamethasone hemisuccinate: Steraloids). Three days later, the cells were harvested and analyzed by flow cytometry using the BD LSR II Fortessa. The plots for flow cytometry were obtained using FCS Express.
Carboxyfluorescein succinimidyl ester (CFSE) labeled CD8+ T cells from TCR transgenic OT-I mice were cultured with BMDC for 3 days. […] Three days later, the cells were analyzed by flow cytometry.

[3] = system: bone marrow derived dendritic cells (BMDC); test: BMDC presentation of […] from CpG-OVA conjugate (flow cytometry); assay type: cell-based; settings: 18 hours; compared to unconjugated CpG and OVA
Experimental: CpG-OVA conjugate was cultured with bone marrow derived dendritic cells (BMDC) in vitro for 18 hours. BMDC presentation of […] was analyzed using flow cytometry and percentage of CD11c+ DCs presenting the […] peptide on the MHC-I molecule was quantified.

[4] = release of conjugate from the MPS scaffold; assay type: physicochemical
Experimental: FIG. 48 is a line graph showing the evaluation of the release kinetics of the GnRH-OVA conjugate from the MPS scaffold. The conjugate was loaded into the MPS scaffold for 8 hours at room temperature (RT).
C57bl/6J mice were immunized with MPS scaffold containing 1 ug GM-CSF and 100 ug OVA, 1 ug GM-CSF, 100 ug CpG and 100 ug OVA (MPS vaccine) or 1 ug GM-CSF and 100 ug OVA conjugated to 100 ug CpG (MPS conjugate vaccine). After 7 days, peripheral blood was analyzed using […] tetramer and the percentage of […] specific T cells within CD3+CD8+ T cells was quantified. MPS conjugate vaccine increased the presence of […] specific CD8+ T cells by 2 fold compared with the MPS vaccine (FIG. 40, bottom).

Molecule: MEVGWYRSPFSRVVHLYRNGK [MOG alone, myelin oligodendrocyte glycoprotein residues 35-55, reference compound]
- IL-17 spot forming cells [1]: 230±10 spot forming cells per million

B1: ovalbumin: model antigen protein (protein, UniProt P01012 2-386, looked up)
Ovalbumin: GSIGAASMEFCFDVFKELKVHHANENIFYCPIAIMSALAMVYLGAKDSTRTQINKVVRFDKLPGFGDSIEAQCGTSVNVHSSLRDILNQITKPNDVYSFSLASRLYAEERYPILPEYLQCVKELYRGGLEPINFQTAADQARELINSWVESQTNGIIRNVLQPSSVDSQTAMVLVNAIVFKGLWEKAFKDEDTQAMPFRVTEQESKPVQMMYQIGLFRVASMASEKMKILELPFASGTMSMLVLLPDEVSGLEQLESIINFEKLTEWTSSNVMEERKIKVYLPRMKMEEKYNLTSVLMAMGITDVFSSSANLSGISSAESLKISQAVHAAHAEINEAGREVVGSAEAGVDAASVSEEFRADHPFLFCIKHIATNAVLFFGRCVSP
- OT-I T cell proliferation, BMDC pretreated with antigen [2]: initiated a stronger proliferative response

B2: CpG-OVA conjugate: OVA protein linked through maleimide to reduced thiol-CpG (conjugate, UniProt P01012 2-386, looked up)
Ovalbumin: GSIGAASMEFCFDVFKELKVHHANENIFYCPIAIMSALAMVYLGAKDSTRTQINKVVRFDKLPGFGDSIEAQCGTSVNVHSSLRDILNQITKPNDVYSFSLASRLYAEERYPILPEYLQCVKELYRGGLEPINFQTAADQARELINSWVESQTNGIIRNVLQPSSVDSQTAMVLVNAIVFKGLWEKAFKDEDTQAMPFRVTEQESKPVQMMYQIGLFRVASMASEKMKILELPFASGTMSMLVLLPDEVSGLEQLESIINFEKLTEWTSSNVMEERKIKVYLPRMKMEEKYNLTSVLMAMGITDVFSSSANLSGISSAESLKISQAVHAAHAEINEAGREVVGSAEAGVDAASVSEEFRADHPFLFCIKHIATNAVLFFGRCVSP
modifications: CpG oligonucleotide via maleimide linker
- CD11c+ DCs presenting SIINFEKL on MHC-I [3]: enhanced presentation
- release from the MPS scaffold [4]: released in a sustained manner followed by a burst release
